Measurements from article PMC6003418.

How the values were obtained:
[1] = molecular target: SnLH3; assay: native gel or EMSA
[2] = molecular target: SnLH3; assay: SAXS

Work on SnLH3 (natural protein) yielded a stoichiometry N [1] of 3 and a stoichiometry N [2] of 3.
